The source of these data is publication PMC11764377.

Test [1] addresses Allochromatium tepidum LH1 α1β1 heterodimer subunit (of the Ca2+-bound LH1-α1β1 complex) (Allochromatium tepidum). The experiment in a line: cryo-EM structure; LH1-only complex co-expressed in Rsp. rubrum H2 and purified in β-DDM, ~5 mg/mL; C14 symmetry applied; closed ring of 14 αβ-heterodimers.
The target of test [2] is Allochromatium tepidum LH1 α2β1 heterodimer subunit (of the Ca2+-free LH1-α2β1 complex) (Allochromatium tepidum). The description is as above.

Turning to “Allochromatium tepidum LH1 α1β1 heterodimer subunit (of the Ca2+-bound LH1-α1β1 complex)”, the stoichiometry N (as a rule, the number of molecules, sites or subunits per partner or assembly) in test [1] turned out to be 14.

Consider “Allochromatium tepidum LH1 α2β1 heterodimer subunit (of the Ca2+-free LH1-α2β1 complex)”, for which, in test [2], the stoichiometry N stood at 14.
